Measured values reported in patent publication US20260242478A1 (published 2026).
Where no end group is shown, it is not given here.

B1: Phage-696 (peptide)
peptide: YCEGHAPQYIAKCL
modifications: cysteine pairing not given here; also: displayed on phage by fusion to pIII, pIII and linker sequence not given here
B2: Phage-697 (peptide)
peptide: YCDGHSPMYIGKCL
modifications: cysteine pairing not given here; also: displayed on phage by fusion to pIII, pIII and linker sequence not given here
B3: Phage-698 (peptide)
peptide: YCAGHLPEYMMKCL
modifications: cysteine pairing not given here; also: displayed on phage by fusion to pIII, pIII and linker sequence not given here
B4: Phage-699 (peptide)
peptide: YCEGHRPEYMQKCL
modifications: cysteine pairing not given here; also: displayed on phage by fusion to pIII, pIII and linker sequence not given here
B5: Phage-700 (peptide)
peptide: YCEGHAREHMAKCL
modifications: cysteine pairing not given here; also: displayed on phage by fusion to pIII, pIII and linker sequence not given here
B6: Phage-701 (peptide)
peptide: YCEGHSPEYMTKCL
modifications: cysteine pairing not given here; also: displayed on phage by fusion to pIII, pIII and linker sequence not given here
B7: Phage-702 (peptide)
peptide: YCEGHSIQYMAKCL
modifications: cysteine pairing not given here; also: displayed on phage by fusion to pIII, pIII and linker sequence not given here
B8: Phage-689 (peptide)
peptide: YCEGHAIQYMSKCL
B9: Phage-690 (peptide)
peptide: YCEGHAPQHMDKCL
B10: Phage-691 (peptide)
peptide: YCEGHSPQYMSKCL
B11: Phage-692 (peptide)
peptide: YCDGHFREYMQKCL
B12: Phage-693 (peptide)
peptide: YCLGHAPQYIQKCL
B13: Phage-694 (peptide)
peptide: YCDGHSSEYMWKCL
B14: Phage-695 (peptide)
peptide: YCSGHLPEYMSKCL

What follows are binders tested against Anti-CD28 Fab (SEQ ID NOs: 696, 697) (assay: phage binding ELISA; biotinylated anti-CD28 Fab on neutravidin plate, clonal phage supernatant, anti-M13 HRP detection).
Target sequence in this assay (VH, as listed by the source, chain 1 of 2): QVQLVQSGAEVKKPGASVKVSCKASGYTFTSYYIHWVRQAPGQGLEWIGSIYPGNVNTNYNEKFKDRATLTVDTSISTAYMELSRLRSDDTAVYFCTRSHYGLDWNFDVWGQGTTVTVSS
Target sequence in this assay (VL, as listed by the source, chain 2 of 2): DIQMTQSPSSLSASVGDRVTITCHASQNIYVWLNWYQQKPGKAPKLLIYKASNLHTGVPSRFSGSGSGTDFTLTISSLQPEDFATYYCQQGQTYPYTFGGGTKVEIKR
In the case of B1, the “Anti-CD28 Fab (SEQ ID NOs: 696, 697) signal” value is reported as 2.03.
B2 was tested, and the “Anti-CD28 Fab (SEQ ID NOs: 696, 697) signal” value was 2.03.
For B3, the “Anti-CD28 Fab (SEQ ID NOs: 696, 697) signal” value was 2.03.
B4 was tested, and the “Anti-CD28 Fab (SEQ ID NOs: 696, 697) signal” value was 2.03.
B5 was tested, and the “Anti-CD28 Fab (SEQ ID NOs: 696, 697) signal” value was 2.02.
For B6, the “Anti-CD28 Fab (SEQ ID NOs: 696, 697) signal” value was 2.02.
With B7 the “Anti-CD28 Fab (SEQ ID NOs: 696, 697) signal” value was 2.02.

What follows are binders tested against T1, Anti-CD28 Fab (SEQ ID NOs: 696, 697) (assay: phage binding ELISA on captured anti-CD28 Fab; competitor: CD28 antigen pre-incubated in the wells).
T1 construct: In the phage ELISA the Fab was biotinylated and captured on neutravidin coated plates
T1 sequence (VH, as listed by the source, chain 1 of 2): as the sequence (VH, as listed by the source, chain 1 of 2) above
T1 sequence (VL, as listed by the source, chain 2 of 2): as the sequence (VL, as listed by the source, chain 2 of 2) above
Protocol: (§1) After panning, phage infected bacteria were plated out and colonies picked into 96 well blocks. Clonal phage was then amplified and separated from bacterial cells via centrifugation.
(§2) Clonal phage were harvested as crude supematants and screened via standard ELISAs. […] Prior to the addition of clonal phage, wells were incubated with blocking buffer and CD28 antigen or blocking buffer alone. Without washing or aspirating, clonal phage supematants were then added to the wells and incubated for a short time. Wells were then washed followed by detection of bound phage using a horse radish conjugated anti-M13 antibody. Clonal phage of interest were then sent for sequence analysis.
B8 was tested, and the “Anti-CD28 Fab signal in the presence of CD28 (phage binding ELISA)” value was 0.06.
For B9, the “Anti-CD28 Fab signal in the presence of CD28 (phage binding ELISA)” value was 0.08.
For B10, the “Anti-CD28 Fab signal in the presence of CD28 (phage binding ELISA)” value was 0.07.
For B11, the “Anti-CD28 Fab signal in the presence of CD28 (phage binding ELISA)” value was 0.06.
With B12 the “Anti-CD28 Fab signal in the presence of CD28 (phage binding ELISA)” value was 0.14.
In the case of B13, the “Anti-CD28 Fab signal in the presence of CD28 (phage binding ELISA)” value is reported as 0.06.
B14 was tested, and the “Anti-CD28 Fab signal in the presence of CD28 (phage binding ELISA)” value was 0.09.

What follows are binders tested against Anti-CD28 Fab (SEQ ID NOs: 696, 697) (assay: phage binding ELISA; captured anti-CD28 Fab pre-incubated with CD28 antigen as competitor, anti-M13 HRP detection).
Target sequence in this assay (VH, as listed by the source, chain 1 of 2): as the sequence (VH, as listed by the source, chain 1 of 2) above
Target sequence in this assay (VL, as listed by the source, chain 2 of 2): as the sequence (VL, as listed by the source, chain 2 of 2) above
With B1 the “Anti-CD28 Fab signal in the presence of CD28” value was 0.08.
In the case of B2, the “Anti-CD28 Fab signal in the presence of CD28” value is reported as 0.07.
With B3 the “Anti-CD28 Fab signal in the presence of CD28” value was 0.11.
For B4, the “Anti-CD28 Fab signal in the presence of CD28” value was 0.11.
For B5, the “Anti-CD28 Fab signal in the presence of CD28” value was 0.08.
With B6 the “Anti-CD28 Fab signal in the presence of CD28” value was 0.08.
For B7, the “Anti-CD28 Fab signal in the presence of CD28” value was 0.06.

These binders were tested against T1, Anti-CD28 Fab (SEQ ID NOs: 696, 697) (assay: phage binding ELISA; biotinylated anti-CD28 Fab on neutravidin plate, bound phage detected with anti-M13-HRP).
Protocol: as §1, §2
For B8, the “Anti-CD28 Fab signal (phage binding ELISA)” value was 2.04.
B9 was tested, and the “Anti-CD28 Fab signal (phage binding ELISA)” value was 2.04.
B10 was tested, and the “Anti-CD28 Fab signal (phage binding ELISA)” value was 2.04.
In the case of B11, the “Anti-CD28 Fab signal (phage binding ELISA)” value is reported as 2.04.
B12 was tested, and the “Anti-CD28 Fab signal (phage binding ELISA)” value was 2.04.
For B13, the “Anti-CD28 Fab signal (phage binding ELISA)” value was 2.03.
With B14 the “Anti-CD28 Fab signal (phage binding ELISA)” value was 2.03.
